Publication PMC4843787 (Biochimica et biophysica acta, 2015)
Where a chain is given by its changes, count along the chain named. Numbers in names are those of the source. Each block holds one binder with its values, some of them ahead of it.

Biological target: T1, MauG, bis-Fe(IV) redox state (UniProt Q51658 21-387)
T1 sequence (looked up): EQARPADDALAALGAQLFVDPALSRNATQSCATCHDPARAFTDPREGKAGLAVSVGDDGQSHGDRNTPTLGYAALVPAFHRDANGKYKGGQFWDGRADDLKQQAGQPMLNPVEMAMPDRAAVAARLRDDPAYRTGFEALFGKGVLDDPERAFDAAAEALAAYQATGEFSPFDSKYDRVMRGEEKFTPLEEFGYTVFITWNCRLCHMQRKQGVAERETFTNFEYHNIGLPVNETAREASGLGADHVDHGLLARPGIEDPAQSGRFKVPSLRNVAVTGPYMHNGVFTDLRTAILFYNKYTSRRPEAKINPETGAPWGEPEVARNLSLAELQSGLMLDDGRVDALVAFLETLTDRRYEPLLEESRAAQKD
Test: stopped-flow single-turnover kinetics

Kd: 165 ± 50 µM
B1: amicyanin from Paracoccus denitrificans, wild type, reduced Cu(I) form (natural protein, UniProt P22364 27-131, looked up)
chain: DKATIPSESPFAAAEVADGAIVVDIAKMKYETPELHVKVGDTVTWINREAMPHNVHFVAGVLGEAALKGPMMKKEQAYSLTFTEAGTYDYHCTPHPFMRGKVVVE

Kd: 240 ± 82 µM
B2: P94A amicyanin, reduced Cu(I) form (natural protein, Paracoccus denitrificans, UniProt P22364 27-131, looked up)
chain: B1 chain with P94A
